This note sets out measurements from patent publication US6635431.

The target in test [1] is α subunit of rat LSR (product of cDNA LSR-Rn-2097) (rat) (UniProt Q9WU74). Description: flotation of 35S-labelled in vitro translated LSR with 100 µg/ml LDL and 1 mM oleate, against no oleate.
The target of test [2] is β subunit of rat LSR (product of cDNA LSR-Rn-1893) (rat) (UniProt Q9WU74). The description is as above.
β subunit of rat LSR (product of cDNA LSR-Rn-1893) (rat), sequence (Q9WU74 other isoform, or with tags, fused parts or gaps limits assumed): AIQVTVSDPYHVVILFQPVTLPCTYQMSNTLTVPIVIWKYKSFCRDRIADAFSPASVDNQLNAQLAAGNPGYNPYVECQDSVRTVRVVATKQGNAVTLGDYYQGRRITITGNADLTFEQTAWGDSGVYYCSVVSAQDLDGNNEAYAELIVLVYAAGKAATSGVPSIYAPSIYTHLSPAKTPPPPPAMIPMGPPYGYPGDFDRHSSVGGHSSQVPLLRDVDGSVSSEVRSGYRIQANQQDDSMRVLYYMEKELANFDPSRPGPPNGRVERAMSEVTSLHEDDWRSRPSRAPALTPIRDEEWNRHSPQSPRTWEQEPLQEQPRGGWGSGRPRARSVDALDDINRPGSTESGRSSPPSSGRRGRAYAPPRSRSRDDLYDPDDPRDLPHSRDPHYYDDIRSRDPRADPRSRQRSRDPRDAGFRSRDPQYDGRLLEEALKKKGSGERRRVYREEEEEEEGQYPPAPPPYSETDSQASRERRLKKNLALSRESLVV

α subunit of rat LSR (product of cDNA LSR-Rn-2097) (rat), sequence (Q9WU74 36-593 limits assumed): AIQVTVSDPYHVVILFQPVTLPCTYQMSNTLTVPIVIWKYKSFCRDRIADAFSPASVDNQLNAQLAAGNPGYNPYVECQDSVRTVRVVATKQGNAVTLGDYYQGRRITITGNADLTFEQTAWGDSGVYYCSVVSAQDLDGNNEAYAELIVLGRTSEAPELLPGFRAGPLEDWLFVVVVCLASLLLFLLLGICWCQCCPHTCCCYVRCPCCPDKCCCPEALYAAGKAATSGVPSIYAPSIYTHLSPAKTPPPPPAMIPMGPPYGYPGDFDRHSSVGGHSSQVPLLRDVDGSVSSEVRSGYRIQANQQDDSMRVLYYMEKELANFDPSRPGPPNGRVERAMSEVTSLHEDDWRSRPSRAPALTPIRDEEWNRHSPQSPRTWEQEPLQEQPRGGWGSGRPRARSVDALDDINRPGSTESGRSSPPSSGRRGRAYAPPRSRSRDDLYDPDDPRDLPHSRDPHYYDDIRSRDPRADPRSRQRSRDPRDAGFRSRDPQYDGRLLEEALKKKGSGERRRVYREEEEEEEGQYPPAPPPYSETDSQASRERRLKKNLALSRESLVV

“LDL (low-density lipoprotein, 1.025<d<1.055 g/ml) isolated from plasma of volunteers, P04114 28-4563”: the values for the factor of increase of LDL binding by oleate in test [1] and in test [2] were 5 fold and 2 fold, respectively.
